Measured values taken from PMC9262588.
No end group written: not given here.

Molecular target: T1, FAM-tat peptide (UniProt P04608, also: FAM label, position not given here)
T1 chain: AAARKKRRQRRRAAA
Assay: SPR

GGCAGAUCUGAGCCUGGGAGCUCUCUGCC (structured_RNA) [biotin-TAR RNA] gave a Kd of 0.38 µM.
